Assay results published in the nanobody polyreactivity screen of Harvey et al. (2022).

Test: yeast display, Sf9 membrane polyspecificity reagent, FACS + sequencing; frameworks hold sequencing errors
How it was run: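 A nanobody's polyreactivity label depends on the gate it was sorted from. Yeast display cells were stained with 10% biotinylated, detergent-solubilized Sf9 membrane reagent for 1 hour at 4 °C, enriched on streptavidin microbeads and sorted by FACS. The low and high (top ~1%) gates were set on anti-HA fluorescence for expression and streptavidin fluorescence for reagent binding.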

Which “polyreactivity (PSR sort gate)” value does the source give for “QVQLVESGGGLVQAGGSLRLSCAASGRTFGKNAMGWYRQAPGKEREFVAAITSRGGSTYYADSVKGRFTISRDNAKNTDYLQMNRLKPEDTAVYYCNREFKRQSQRTEHYYWGQGTQVTVSS” here?
Its value is “low polyreactivity”.

Which “polyreactivity (PSR sort gate)” value does the source give for “QVQLEESGGGLVQAGGSLRISCAASGRTIGPYAMGWYRQARGKERELVAAISGGGSTNYADSVKGRFTISRDNAKNSDYLQMNSLKPEDTAVYYCNTEYPISGEEEYWGQGTHVTVSS” here?
Its value is “low polyreactivity”.

With “QVQLVESGGGLVQAGGSLRLRCAASGSSFTGYAMGLYRQAPGKEREFVAAICWTGVSTYYADSVKGSFTISRDNAKNTVYLQMNSLKPEDTAVYYCAVDYVLRDRDLFYIIMEYWGQGTQVTVSS” as the sequence, how does the “polyreactivity (PSR sort gate)” value read?
Its value is “low polyreactivity”.

Which “polyreactivity (PSR sort gate)” value does the source give for “QVQLVESGGGLVQAGGSLRLSCAASGGIFLSNAMGWYRQAPGKERELVAAISRSGGSTYYADSVKWRFTISRDNAKNTVYLQMYSLKPEDTAVYYCAARWTRNYGMNYWGQGTQVTVSS” here?
The value was “high polyreactivity”.

With “QVQLVESGGGLVQAGGSLRLSCAASGRIFSRNAMGWYRQAPGKERELVAAITWRGGNTYYAHSVKGRFTISRDNAKNTVYLQMNSLKPEDTAVYYCAADYLRWAGRYFSWDYDYWGQGTQVTVSS” as the sequence, how does the “polyreactivity (PSR sort gate)” value read?
Its value is “high polyreactivity”.

Which “polyreactivity (PSR sort gate)” value does the source give for “QVQLVESGGGLVQAGGSLRLSCAASGSIFVTYAMGWYRQAPGKERELVASITGRGGSTYYADSVKGRFTISRDNAKNTVYLQMNSLKPEDTAVYYCAARVASRHGWHNYWGQGTQVSVSS” here?
Its value is “high polyreactivity”.

With “QVQLVESGGGLVQAGGSLRLSCAASGSTFRYYTMGWYRQAPGKEREFVASISRSGGSTYYADSVKGRFTISRDNAKNTVYLQMNSLKPEDTAVYYCNAVKGSYSRSQGNEYWGQGTQVTVSS” as the sequence, how does the “polyreactivity (PSR sort gate)” value read?
The value was “high polyreactivity”.

Which “polyreactivity (PSR sort gate)” value does the source give for “QVQLVESGGGLVLTGGSLRLSCAASGSILGTYAMGWYRQAPGKERELVARISRGGSTNYADSVKGRFTISRDNAKNTVYLQMNSLKPEDTAVYYCAKRLYLPESWRYYYWGQGTQVTVSS” here?
Its value is “high polyreactivity”.

Which “polyreactivity (PSR sort gate)” value does the source give for “QVQLVESGGGLVQAGGSLRLSCAASGRIFRHNTMGWYRQAPGNESELVAGITASGGDTYYADSVTGRFTISRDNAKNTVYLQMNSLNPEDTAVYDCATSQYGYRSWPGLYYWGQGTQVTVSS” here?
The value was “low polyreactivity”.

For “QVQLVESGGGLVQAGGSLRLSCPASGRIFYIYTMGWYRQAPGKERELVASITYNGGSTYYADSVKGRFTISRDNAKNTVYLQMNSLKPEDTAVYYCNANSRSPTYRYRSWPYNYWGQGTQVTVSS”, which “polyreactivity (PSR sort gate)” value is on record?
The value was “high polyreactivity”.

With “QVPLVESGGGLVQAGGSLRLSCAASGRLFGYNTMGWYRQAPGKERELVARISYDVDSTYYADSVKGRFTISRDNAKNTVYLQMNSLKPEDTAVYYCNARRSNLGSYIEYFGFDYWGQGTQVTVSS” as the sequence, how does the “polyreactivity (PSR sort gate)” value read?
Its value is “low polyreactivity”.

Which “polyreactivity (PSR sort gate)” value does the source give for “QDQLVESGGGLVQAGGSLRLSCAASGSIFSYYAMGWYRHAPAKDRELVAAITGVGGTNYADSVKGRFTISRDNAKNTVYLQMNSLKPEDTAVYYCAARQYWRRYQYYYWGQGTQVTVSS” here?
Its value is “high polyreactivity”.

With “QVQLVESGGGLGQAGGSLRLSCAASGYIFPIYAMGWYRQAPGKERELVAAITESGGSTYYADSVKGRFTISRDNAKNTVYLQMNSLKQEDTAVYYCAKEVVKHPRGKLDYWGQGTQVTLSS” as the sequence, how does the “polyreactivity (PSR sort gate)” value read?
The value was “low polyreactivity”.

With “QVQLVESGGGLVQAGGSLRLICAASGFIFFINDMGWYRQAPGKERELVAAISWSCGSTYYADSVKGRFTISRDNAKNTVYLQMNSLKPEDTAVYYCNTDVPTAQYDYWGQGTQVTVSS” as the sequence, how does the “polyreactivity (PSR sort gate)” value read?
Its value is “low polyreactivity”.

For “QVQLVESGGGLVQAGGSLRLSCAASGRTSAKYAMGWYRQAPGKERELVAVITKNSGSTYYADSVKGRFTISRDNAKNTVYLQMNSLKPEDTAVYYCNRVPRGINRQSRPEDYWGQGTQVTVSS”, which “polyreactivity (PSR sort gate)” value is on record?
The value was “high polyreactivity”.

Which “polyreactivity (PSR sort gate)” value does the source give for “QDQLVESGGGLVQAGGSLRLSCAASGRTFYKYAMGWYRQAPGKERELVAAIRTGGGTSYADSVKGRFTISRDNAKNTVYLQMNSLKPEDTAVYYCNARGVYFWWRLDYWGQGTQVTVSS” here?
The value was “low polyreactivity”.

With “QVQLVESGGGLVQAGGSLRLSCAASGSTFIPYAMGWYRQAPGKERELVARITWSDTSTYYADSVKGRFTISRDNAKNTVYLHMNSVKPEDTAVYYCAAKEFSLARGARPRYYYWGQGTQVTVSS” as the sequence, how does the “polyreactivity (PSR sort gate)” value read?
The value was “high polyreactivity”.

With “QVHLVESGGGLVQAGGSLRLSCAASGLTFYSNAMRWYRQAPGKERELVARISTGGSTYADSVKGRFTISRDNAKNTVYLQMNSLKPEDTGVFYCAKLPPRGIDDEYWGQATQVTVSS” as the sequence, how does the “polyreactivity (PSR sort gate)” value read?
The value was “low polyreactivity”.

With “QVQLVESGGGLVQAGGSLRLSCAASGGIFWTYAMGWYRQEPGKERELVAAISYSDGITYYADSGKGRFTISRDNAKNTVYFQMYSLKPEDTAVYYCAADPELAVPMYYWGQGTQVTVSS” as the sequence, how does the “polyreactivity (PSR sort gate)” value read?
Its value is “low polyreactivity”.

Which “polyreactivity (PSR sort gate)” value does the source give for “QVQLVESRGGLVQAGGSLRLSCAASGFTFVGYAMGWYRQAPGKERALVAAISRRGTPTYYADSVKGRFTISRDNAKNTVYLQMNSLKPEDTAVYFCAASNGYQAVTYDYWGQGTQVTVSS” here?
Its value is “high polyreactivity”.

With “QVQLVESGGGLVQAGGSLRLSCAASGSTFFPNGMGWYRQARGKEWELVAAITQDGGSTYYADSVKGRFTISRDNAKNTVYLQMNSLNPEDTAVYYCAASAGPYYEYGYWGQGTQVTVSS” as the sequence, how does the “polyreactivity (PSR sort gate)” value read?
Its value is “low polyreactivity”.

Which “polyreactivity (PSR sort gate)” value does the source give for “QVQLVESGGGLVQAGGSLRLSCAASGITFKSYAMGWYRKAPGKERELVAAITRSGGSTYYADSVKGRLTISRDNAKNTVYLQMNSLKPEDTAVYYCAARYFIAYPQYTYDYWGQGTQVTVSS” here?
Its value is “high polyreactivity”.

With “QVQLVDSGGGLVQAGGSLRLSCAASGRTFTYYAMGWYRQAPGKERELVASISTTGRTYYADSVKGRFTITRDNAKNTVYLQMNSLKREDTAVYYCNASRVRRWNDYYKKFDYWGQGTQVTVSS” as the sequence, how does the “polyreactivity (PSR sort gate)” value read?
The value was “high polyreactivity”.

Which “polyreactivity (PSR sort gate)” value does the source give for “QVQLVESGGGLVQAGGSLRLSCAATGSTFHNYAMGWYRQAPGKERELGAGISVRGGGTYYADSVKGRFTISRDNAKNTVYLQMNSLKPEDTAVYYFAKRSRYYYRYDYWGQGTQVTVSS” here?
Its value is “high polyreactivity”.

With “QVQLVESGGGLVQAGGSLRLSCAASGFIFATYNMGWYRQAPGKERELVAAITWRGGSTYYADSVKGRFTISRDNAKITVYLQMNSLKPEDTAVYYCAAQDVYSYRYVEDDYWGQGTQVTVSS” as the sequence, how does the “polyreactivity (PSR sort gate)” value read?
Its value is “low polyreactivity”.

For “QDQLVESGGGLVQAGGSLRLSCAASGSNFRFNAMGWDTQAPGKEREFDAANSRSGGRTYYADSVKGRFRISRDNAKNTVYFQMNCLKPEDTAVFYCNAVWRFPIGRSAPRYDYWGQGTQVTVSS”, which “polyreactivity (PSR sort gate)” value is on record?
Its value is “high polyreactivity”.

For “QVQLVESGGGLVQAGGSLRLSCAASGRTIRSYAMGWYRQAPGKERELVAAITGSGGRTYYADSVKGRFTISRDNAKNTVYLQMNSLKPEDTAVYYCAARLRGSYDYWGQGTQVTVSS”, which “polyreactivity (PSR sort gate)” value is on record?
Its value is “high polyreactivity”.

With “QVQLVESGGGLVQEGGSLRLSCAASGFTFARYAMGWYRQSPGKERELVARISSRGGSTNFADSVKGRFTISRDNAKNTVYLQMNSLKPEDTAVYYCAKYYSSKYYYWGQGTQVTVSS” as the sequence, how does the “polyreactivity (PSR sort gate)” value read?
The value was “high polyreactivity”.

With “QVQLVESGGGLVQAGGSLRLSCAASGSIFVYYTMGWYRQAPGKERELVAAISISGTSTYYADSVKGRFTISRDNAKNTVYLQMNSLKPEDTAVYYCAADTYYGEDYWGQGTQVTVSS” as the sequence, how does the “polyreactivity (PSR sort gate)” value read?
The value was “low polyreactivity”.

For “QVQLQESGGGLVQACGSLRLSCAASGYIFSHQYMGWYRQAPGKERELVASISPGATTNYADSVKGRFTISRDNAKNTVFLQMNSLKPEDTAVYYYAVYQMLDRRLSYWGQGTQVTVSC”, which “polyreactivity (PSR sort gate)” value is on record?
The value was “high polyreactivity”.

Which “polyreactivity (PSR sort gate)” value does the source give for “QVQLVESGGGLVQAGGSLRLSCAASGFTLRGNAMGWYRPAPGKERELVAAISTGGSTYYADSVKGRFTISRDNAKNTVYLQMNSLKPEDTAVYYCARRGWFHYRYYYWGQGTQATVSS” here?
The value was “high polyreactivity”.

With “QVQLVESGGSLVQAGGSLRLSCAASGFIFIRYAMGWYRQAPGKERELVAAITTSTGRTYYADSVKGRFTISRDNAKNTVYLQMNSLKPEDTAVYYCAAVPWKRYDYYTPFARGYWGQGTQVTVSS” as the sequence, how does the “polyreactivity (PSR sort gate)” value read?
The value was “low polyreactivity”.

With “QVQLVESGGGLVQAGGSLRLSCAASGRIFYFYAMGWYRQAPGKEREFVATISYTGGSRYYSDSVKGRFTISRDIAKNTVYLQMNSLKPEDTAVYYCAVRGWYPGFRYDYWGQGTQVTVSS” as the sequence, how does the “polyreactivity (PSR sort gate)” value read?
Its value is “low polyreactivity”.

With “QVQLVESGGGLVQAGGSLRLSCAASGRTFSGYAMGWYRQAPGKERELVAGITWNGGRTYYADSVKGRFTISRDNAKNTVYLQMNILKPDDTAVYYCYKLGAVYPKYGYWGQGTQVTVSS” as the sequence, how does the “polyreactivity (PSR sort gate)” value read?
Its value is “high polyreactivity”.

With “QVQLVESGGGLVQAGGSLRLSCAASGRTFDHYAMGWYRQAPGKERELVAAITSGGSTYYADSVKGRFTISRDNAKNTVYLQMNSLKPEDTAVYYCNKDSSFWGCYIAQVNERDYWGQGTQVTVSS” as the sequence, how does the “polyreactivity (PSR sort gate)” value read?
The value was “low polyreactivity”.

For “QDQLVESGGGLVQAGGILRLICAASGLTFASYGMGWYRQAPGKERELVAAISSSGGITYYADSVKGRFTISRDNAKNTVYLQMNSLKPEDTAVYYCAAAKRSGYTGFKYYYWGQGTQVTVSS”, which “polyreactivity (PSR sort gate)” value is on record?
The value was “high polyreactivity”.

For “QVQLVESGGGLVQAGGSLRLSCAASGSTFAGYVMGWYRQAPGKERELVASKSWSGGSTYYADSVKGRFTISRDNAKNTVNLQMNSLKPEETAVYYSNTRRYERTDSAYPDHDYPGYYWGQATQVTVSS”, which “polyreactivity (PSR sort gate)” value is on record?
The value was “low polyreactivity”.

Which “polyreactivity (PSR sort gate)” value does the source give for “QVQLVESGGGLVQAGGSLRLSCAASGFTIVPYAMGWYRQAPGKERELVAAISRRGSRTYYADSVKGRFTISRDNAKNTVYLQMNSLKPEDTAVYYCAAKLSAVKAAYDYWGQGTQVTVSS” here?
Its value is “high polyreactivity”.

For “QVQLVESGGGLVQAGGSLRLSCAASGRIFPGYAMGWYRQAPGKERELVAAISGSGVRTYYADSVKGRFTISRDNAKNTFYLQMNSLKPEDTAVYYCAADSKIRTKLDYWGQGTQVTVSS”, which “polyreactivity (PSR sort gate)” value is on record?
The value was “low polyreactivity”.

With “QVQIVESGGGLVQAGGSLRLSCAASGFTIPRYAMGWYRQAPGKERELVAAISRAGRTYYADSVKGRFTISRDNAKNTVYLLMTSLKPEDTAVYYCNSQYLKPGDYWGHGTQVTVSS” as the sequence, how does the “polyreactivity (PSR sort gate)” value read?
Its value is “high polyreactivity”.

For “QVQLEESGGGLVQAGGSLRLSCAASGFTFGVYPMGWYRQATGKEREFVADITYSGGSTYYADSVKGRFTISRDNAKNTVYLHMNSLKPEDTAVYYCAAGYVYTWYGEYVVGYDYWGQGTQVTVSS”, which “polyreactivity (PSR sort gate)” value is on record?
Its value is “high polyreactivity”.
